From the supplement of paper PMC7877785
± gives the uncertainty stated by the source.

Assay: self-splicing fitness, log relative to wild type (ln ratio); higher = more splicing; Tetrahymena group I intron in knt gene, E. coli kanamycin selection, DiMSum; sequences stand for … in CUCUCU…GGAGGGAAAAGUUAUCAGGCAUGCACCUGGUAGCUAGUCUUUAAACCAAUAGAUUGCAUCGGUUUAAAAGGCAAGACCGUCAAAUUGCGGGAAAGGGGUCAACAGCCGUUCAGUACCAAGUCUCAGGGGAAACUUUGAGAUGGCCUUGCAAAGGGUAUGGUAAUAAGCUGACGGACAUGGUCCUAACCACGCAGCCAAGUCCUAAGUCAACAGAUCUUCUGUUGAUAUGGAUGCAGUUCACAGACUAAAUGUCGGUCGGGGAAGAUGUAUUCUUCUCAUAAGAUAUAGUCGGACCUCUCCUUAAUGGGAGCUAGCGGAUGAAGUGAUGCAACACUGGAGCCGCUGGGAACUAAUUUGUAUGCGAAAGUAUAUUGAUUAGUUUUGGAGUACUCGUGGUCG
Method in brief: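 Colonies from six replicate transformations of E. coli BL21(DE3) were pooled and amplicon-sequenced on an Illumina HiSeq 2500. The library placed an intron with all eight P1ex-region nucleotides randomised inside the knt kanamycin-resistance gene on pET-22b(+), and cells grew overnight at 37°C or 30°C on LB agar with or without 25 μg/mL kanamycin (plus 100 μg/mL carbenicillin, 50 μM IPTG, 0.2% rhamnose). Fitness is the DiMSum error-weighted combination of wild-type-normalised replicate fold changes, kanamycin versus none.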

AUUCAGCAAUAUUACGCAUU
self-splicing fitness (ln) (30 °C): -0.534 ± 0.076 | self-splicing fitness (ln) (37 °C): -0.427 ± 0.095

CGCAAGCAAUAUUACGCGCC
self-splicing fitness (ln) (30 °C): -3.06 ± 0.21 | self-splicing fitness (ln) (37 °C): -1.54 ± 0.17

AUCGAGCAAUAUUACGACCU
self-splicing fitness (ln) (30 °C): -0.95 ± 0.092 | self-splicing fitness (ln) (37 °C): -0.344 ± 0.15

CGCAAGCAAUAUUACGUGAU
self-splicing fitness (ln) (30 °C): -4.09 ± 0.16 | self-splicing fitness (ln) (37 °C): -1.63 ± 0.11

UCUAAGCAAUAUUACGAUGG
self-splicing fitness (ln) (30 °C): -0.0699 ± 0.087 | self-splicing fitness (ln) (37 °C): 0.158 ± 0.11

GCUGAGCAAUAUUACGUCGA
self-splicing fitness (ln) (30 °C): -1.34 ± 0.24 | self-splicing fitness (ln) (37 °C): -1.72 ± 0.24

AGAAAGCAAUAUUACGAUCA
self-splicing fitness (ln) (30 °C): 0.101 ± 0.083 | self-splicing fitness (ln) (37 °C): 0.0881 ± 0.11

CGGAAGCAAUAUUACGCUGA
self-splicing fitness (ln) (37 °C): -1.21 ± 0.26

AACUAGCAAUAUUACGUAGC
self-splicing fitness (ln) (30 °C): -4.04 ± 0.26 | self-splicing fitness (ln) (37 °C): -2.12 ± 0.21

CAUGAGCAAUAUUACGUCCA
self-splicing fitness (ln) (30 °C): -2.74 ± 0.33 | self-splicing fitness (ln) (37 °C): -2.28 ± 0.34

GGGGAGCAAUAUUACGUAUA
self-splicing fitness (ln) (30 °C): -1.69 ± 0.47 | self-splicing fitness (ln) (37 °C): -2.35 ± 0.39

UAGCAGCAAUAUUACGACUA
self-splicing fitness (ln) (30 °C): 0.282 ± 0.1 | self-splicing fitness (ln) (37 °C): 0.568 ± 0.13

GCUGAGCAAUAUUACGCAUA
self-splicing fitness (ln) (30 °C): -3.37 ± 0.3 | self-splicing fitness (ln) (37 °C): -1.82 ± 0.17

GGCUAGCAAUAUUACGUUGA
self-splicing fitness (ln) (30 °C): -1.26 ± 0.13 | self-splicing fitness (ln) (37 °C): 0.455 ± 0.14

CUUAAGCAAUAUUACGUGAU
self-splicing fitness (ln) (30 °C): -2.63 ± 0.092 | self-splicing fitness (ln) (37 °C): -0.627 ± 0.093

GGUAAGCAAUAUUACGUUGC
self-splicing fitness (ln) (30 °C): -3.3 ± 0.32 | self-splicing fitness (ln) (37 °C): -2.95 ± 0.4

CUAGAGCAAUAUUACGGUCU
self-splicing fitness (ln) (37 °C): -3.69 ± 0.34

GUAGAGCAAUAUUACGCGCA
self-splicing fitness (ln) (30 °C): -0.299 ± 0.1 | self-splicing fitness (ln) (37 °C): 0.0346 ± 0.13

GAUCAGCAAUAUUACGUAUA
self-splicing fitness (ln) (30 °C): -0.819 ± 0.091 | self-splicing fitness (ln) (37 °C): -0.975 ± 0.088

CAGAAGCAAUAUUACGGUGA
self-splicing fitness (ln) (30 °C): -2.21 ± 0.096 | self-splicing fitness (ln) (37 °C): -1.13 ± 0.1

GACCAGCAAUAUUACGGCUC
self-splicing fitness (ln) (30 °C): -0.856 ± 0.13 | self-splicing fitness (ln) (37 °C): 0.658 ± 0.15

GAACAGCAAUAUUACGUCCA
self-splicing fitness (ln) (30 °C): -0.934 ± 0.089 | self-splicing fitness (ln) (37 °C): -0.369 ± 0.1

UAUGAGCAAUAUUACGAAUC
self-splicing fitness (ln) (37 °C): -1.07 ± 0.26

AUACAGCAAUAUUACGACCC
self-splicing fitness (ln) (30 °C): -1.1 ± 0.21 | self-splicing fitness (ln) (37 °C): -0.179 ± 0.17

CGGAAGCAAUAUUACGAUUU
self-splicing fitness (ln) (30 °C): -3.62 ± 0.2 | self-splicing fitness (ln) (37 °C): -1.51 ± 0.15

CCGUAGCAAUAUUACGCUCG
self-splicing fitness (ln) (30 °C): -1.1 ± 0.2 | self-splicing fitness (ln) (37 °C): -0.457 ± 0.23

AUUAAGCAAUAUUACGGCAA
self-splicing fitness (ln) (30 °C): -0.363 ± 0.12 | self-splicing fitness (ln) (37 °C): 0.438 ± 0.15

AUCCAGCAAUAUUACGCGUG
self-splicing fitness (ln) (30 °C): -2.3 ± 0.11 | self-splicing fitness (ln) (37 °C): -1.72 ± 0.11

GGCGAGCAAUAUUACGCGAA
self-splicing fitness (ln) (30 °C): -2.45 ± 0.2 | self-splicing fitness (ln) (37 °C): -1.33 ± 0.16

GCUGAGCAAUAUUACGGGCU
self-splicing fitness (ln) (30 °C): -1.89 ± 0.31

AGAUAGCAAUAUUACGCCGC
self-splicing fitness (ln) (30 °C): -3.03 ± 0.3 | self-splicing fitness (ln) (37 °C): -2.04 ± 0.32

ACUUAGCAAUAUUACGGUGC
self-splicing fitness (ln) (30 °C): -3.78 ± 0.24 | self-splicing fitness (ln) (37 °C): -1.06 ± 0.17

CUCUAGCAAUAUUACGCAUC
self-splicing fitness (ln) (37 °C): -2.64 ± 0.36

AGAGAGCAAUAUUACGGAUA
self-splicing fitness (ln) (30 °C): -2.48 ± 0.21 | self-splicing fitness (ln) (37 °C): -1.24 ± 0.21

UGGGAGCAAUAUUACGCACG
self-splicing fitness (ln) (30 °C): -3.26 ± 0.37

AUGGAGCAAUAUUACGGAAA
self-splicing fitness (ln) (30 °C): -3.4 ± 0.37 | self-splicing fitness (ln) (37 °C): -2.35 ± 0.29

ACAAAGCAAUAUUACGAUCA
self-splicing fitness (ln) (30 °C): -0.675 ± 0.066 | self-splicing fitness (ln) (37 °C): -0.735 ± 0.093

AUAGAGCAAUAUUACGGUCC
self-splicing fitness (ln) (30 °C): -2.61 ± 0.38

CGUCAGCAAUAUUACGACCG
self-splicing fitness (ln) (30 °C): -0.855 ± 0.098 | self-splicing fitness (ln) (37 °C): -0.475 ± 0.12

ACAUAGCAAUAUUACGUGAG
self-splicing fitness (ln) (30 °C): -0.863 ± 0.036 | self-splicing fitness (ln) (37 °C): -0.206 ± 0.062

GAGGAGCAAUAUUACGGUUC
self-splicing fitness (ln) (37 °C): -3.2 ± 0.35

CGUGAGCAAUAUUACGGAAC
self-splicing fitness (ln) (37 °C): -1.28 ± 0.44

GUCAAGCAAUAUUACGCUGA
self-splicing fitness (ln) (30 °C): -5.3 ± 0.45 | self-splicing fitness (ln) (37 °C): -3.74 ± 0.42

CUAAAGCAAUAUUACGGUAU
self-splicing fitness (ln) (30 °C): -3.53 ± 0.16 | self-splicing fitness (ln) (37 °C): -2.58 ± 0.17

CGAGAGCAAUAUUACGGACA
self-splicing fitness (ln) (30 °C): -1.85 ± 0.28 | self-splicing fitness (ln) (37 °C): -3.4 ± 0.39
